Tests used:
Assay in all cases: cell-based or functional assay
[1] = target: T1, HIV-1 HXB2 envelope protein (ENV), gp41 transmembrane subunit (HIV-1 HXB2, UniProt P04578 33-856)
[2] = target: T1, HIV-1 HXB2 envelope protein (ENV), gp41 …; remark: listed apart in the source
[3] = target: HIV-1 LAI ENV (CXCR4 tropic) (HIV-1 LAI, UniProt P03377 33-861)
[4] = target: HIV-1 AD8 ENV (CCR5 tropic) (HIV-1 AD8)

| Binder | IC50 (nM), antiviral activity in a fully infectious HIV-1 system [1] [nM] | further results |
| --- | --- | --- |
| ELQLTQWKIKQLLARILK [N17mut (e, g) K] | > 4000 |  |
| YTSLIHSLIEESQNQQEKNK (sphinganine on the side chain of the C-terminal Lys) [DP19K-sphinganine] | 350 |  |
| ELQLTQWKIKQLLARILK (sphinganine on the N-terminus) [Sphing-N17mut (e, g) K] | 120 |  |
| LQARILAVERYLKDQQL (sphinganine on the N-terminus) [Sphinganine-ShN17] | 886 |  |
| YTSLIHSLIEESQNQQEKNK [DP19K] | 2210 |  |
| ELQLTQWKIKQLLARILK (sphinganine on the side chain of the C-terminal Lys) [N17mut (e, g) K-sphing] | 120 |  |
| LLQLTVWGIKQLQA (sphinganine on the N-terminus) [Sphing-N14] | 500 |  |
| LLQLTVWGIKQLQARIL (sphingosine on the N-terminus) [Sphingosine-N17] | 208 |  |
| LLQLTVWGIKQLQARILK (sphinganine on the side chain of the C-terminal Lys) [N17K-sphinganine] | 291 | IC50 value, viral infectivity [2]: 287 nM |
| LLQLTVWGIKQLQARIL (cholesterol on the N-terminus) [Cholesterol-N17] | > 4000 |  |
| LLQLTVWGIKQLQARILK (sphinganine on the N-terminus) [Sphinganine-N17K] | 118 | inhibitory concentration at 50% infectivity (IC50) [2]: 116 nM |
| LLQLTVWGIKQLQARIL (tocopherol (alpha-tocopherol succinate) on the N-terminus) [Tocopherol-N17] | > 4000 |  |
| LLQLTVWGIKQLQA [N14] | > 4000 |  |
| LLQLTVWGIKQLQARIL [N17] | > 4000 |  |
| LLQLTVWGIKQLQARILK [N17K] | > 4000 |  |
| LLQLTVWGIKQLQARIL (sphinganine (dihydrosphingosine) on the N-terminus) [Sphinganine-N17] | 121 | IC50, infection of TZM-bl cells by pseudotyped virus [3]: 312 nM; IC50, infection of TZM-bl cells by pseudotyped virus [4]: 403 nM |
| LLQLTVWGIKQLQARIL (palmitic acid (C16) on the N-terminus) [Palmitic acid-N17] | > 4000 |  |

— US20150045291A1 (YEDA RESEARCH AND DEVELOPMENT, published 2015)
